Laboratory results published in paper PMC10198636 (Science Advances, 2023).

Biological target: Cul3(N), recombinant N-terminal domain of human Cul3 (human, UniProt Q13618 1-417)
Experiment: ITC

Cul3(N), recombinant N-terminal domain of human Cul3, sequence (Q13618 1-417): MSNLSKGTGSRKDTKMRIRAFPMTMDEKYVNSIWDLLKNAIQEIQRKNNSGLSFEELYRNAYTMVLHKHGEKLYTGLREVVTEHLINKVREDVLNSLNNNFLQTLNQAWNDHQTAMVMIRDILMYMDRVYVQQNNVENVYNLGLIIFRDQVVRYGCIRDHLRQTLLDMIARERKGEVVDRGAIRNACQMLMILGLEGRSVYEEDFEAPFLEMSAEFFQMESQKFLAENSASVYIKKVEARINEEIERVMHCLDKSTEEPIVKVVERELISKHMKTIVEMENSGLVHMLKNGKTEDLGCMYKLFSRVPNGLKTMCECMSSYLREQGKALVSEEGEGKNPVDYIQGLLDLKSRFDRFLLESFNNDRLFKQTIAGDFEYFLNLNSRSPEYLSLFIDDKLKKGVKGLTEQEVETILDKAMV

B1: Keap1(N), recombinant N-terminal portion of human Keap1 spanning the BTB and BACK domains (domain or fragment)
chain: MQPDPRPSGAGACCRFLPLQSQCPEGAGDAVMYASTECKAEVTPSQHGNRTFSYTLEDHTKQAFGIMNELRLSQQLCDVTLQVKYQDAPAAQFMAHKVVLASSSPVFKAMFTNGLREQGMEVVSIEGIHPKVMERLIEFAYTASISMGEKCVLHVMNGAVMYQIDSVVRACSDFLVQQLDPSNAIGIANFAEQIGCVELHQRAREYIYMHFGEVAKQEEFFNLSHCQLVTLISRDDLNVRCESEVFHACINWVKYDCEQRRFYVQALLRAVRCHSLTPNFLQMQLQKCEILQSDSRCKDYLVKIFEELT
  Kd: 562 nM

B2: KLHL3(N), recombinant N-terminal portion of human KLHL3 spanning the BTB and BACK domains (domain or fragment)
chain: MEGESVKLSSQTLIQAGDDEKNQRTITVNPAHMGKAFKVMNELRSKQLLCDVMIVAEDVEIEAHRVVLAACSPYFCAMFTGDMSESKAKKIEIKDVDGQTLSKLIDYIYTAEIEVTEENVQVLLPAASLLQLMDVRQNCCDFLQSQLHPTNCLGIRAFADVHTCTDLLQQANAYAEQHFPEVMLGEEFLSLSLDQVCSLISSDKLTVSSEEKVFEAVISWINYEKETRLEHMAKLMEHVRLPLLPRDYLVQTVEEEALIKNNNTCKDFLIEAMKYHLLP
  Kd: 13.8 nM
